Test results reported in PMC4298689 (The Journal of Cell Biology, 2015).
Each block holds one molecule with its values, some of them ahead of it. Non-standard residues stand in square brackets, D forms with d. No end group written: not given here. pT = C[C@@H](OP(=O)(O)O)[C@H](N)C(=O)O

B1: Spc24–Spc25 complex (Spc24^92–197, Spc25^70–224) (complex, human)
chain 1: EEDTRLKASLLQLTRELEELKEIEADLERQEKEVDEDTTVTIPSAVYVAQLYHQVSKIEWDYECEPGMVKGIHHGPSVAQPIHLDSTQLSRKFISDYLWSLVDTEW
chain 2: RQNKLIQEKKDNLLKLIAEVKGKKQELEVLTANIQDLKEEYSRKKETISTANKANAERLKRLQKSADLYKDRLGLEIRKIYGEKLQFIFTNIDPKNPESPFMFSLHLNEARDYEVSDSAPHLEGLAEFQENVRKTNNFSAFLANVRKAFTATVYN

Tests used:
[1] = target: CENP-C (UniProt Q03188); test: anti-GFP IP, immunoblot; details: reference: Dsn1-WT-GFP; sites S100,S109
[2] = target: T1, His6-tagged recombinant Mis12C containing Dsn1-WT (human, UniProt Q9H410 1-356; Q96IY1 1-258; Q9H081 1-205; Q6P1K2 1-205); test: pull-down
T1 sequence (looked up) 1: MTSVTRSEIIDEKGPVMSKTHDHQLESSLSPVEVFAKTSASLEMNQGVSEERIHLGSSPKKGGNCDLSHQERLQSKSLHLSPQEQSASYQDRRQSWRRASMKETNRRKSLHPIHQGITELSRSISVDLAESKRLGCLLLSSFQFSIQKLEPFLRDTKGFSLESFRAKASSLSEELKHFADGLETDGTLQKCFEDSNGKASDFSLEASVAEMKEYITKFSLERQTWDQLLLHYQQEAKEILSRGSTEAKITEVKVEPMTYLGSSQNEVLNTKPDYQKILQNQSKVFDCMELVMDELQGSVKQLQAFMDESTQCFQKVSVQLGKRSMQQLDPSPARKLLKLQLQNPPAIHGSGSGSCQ
T1 sequence (looked up) 2: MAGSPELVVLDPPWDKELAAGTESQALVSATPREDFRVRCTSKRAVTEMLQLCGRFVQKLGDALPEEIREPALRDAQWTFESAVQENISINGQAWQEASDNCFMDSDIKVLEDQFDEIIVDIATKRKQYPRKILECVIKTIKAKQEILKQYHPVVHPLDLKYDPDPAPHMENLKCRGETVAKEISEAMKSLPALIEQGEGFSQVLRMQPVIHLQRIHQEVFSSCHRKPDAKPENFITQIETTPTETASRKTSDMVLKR
T1 sequence (looked up) 3: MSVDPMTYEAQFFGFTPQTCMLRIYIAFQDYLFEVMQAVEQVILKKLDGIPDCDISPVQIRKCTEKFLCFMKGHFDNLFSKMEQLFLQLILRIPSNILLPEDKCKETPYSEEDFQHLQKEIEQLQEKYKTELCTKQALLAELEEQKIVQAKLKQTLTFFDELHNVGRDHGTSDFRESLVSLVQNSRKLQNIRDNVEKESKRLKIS
T1 sequence (looked up) 4: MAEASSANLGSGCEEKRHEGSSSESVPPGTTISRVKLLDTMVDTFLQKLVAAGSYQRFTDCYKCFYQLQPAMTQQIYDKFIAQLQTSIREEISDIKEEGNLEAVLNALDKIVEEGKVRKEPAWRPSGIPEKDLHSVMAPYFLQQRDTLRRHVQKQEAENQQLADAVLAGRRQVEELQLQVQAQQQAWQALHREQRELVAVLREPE

[3] = target: B1; test: pull-down
[4] = target: fluorescein-labeled CENP-C^1–28 peptide (human, 5FAM (fluorescein) on the N-terminus); test: MST

Molecule: Dsn1 (from UniProt Q9H410) Dsn1-S100A/S109A-GFP
binding against the reference [1]: weaker

Molecule: B1
binding result [2]: binds

Second part, the molecule after the results:

binding result [3]: binds
Molecule: HLEEQ[pT]PRTLLKNILLTAPESSILM (peptide, UniProt Q96BT3 80-104, looked up) [synthetic phospho-T85 CENP-T peptide containing residues 80–104]

Kd [4]: 2.1 ± 0.4 µM
B2: Recombinant Mis12C-WT (construct not told for this experiment) (complex)
chain 1: MTSVTRSEIIDEKGPVMSKTHDHQLESSLSPVEVFAKTSASLEMNQGVSEERIHLGSSPKKGGNCDLSHQERLQSKSLHLSPQEQSASYQDRRQSWRRASMKETNRRKSLHPIHQGITELSRSISVDLAESKRLGCLLLSSFQFSIQKLEPFLRDTKGFSLESFRAKASSLSEELKHFADGLETDGTLQKCFEDSNGKASDFSLEASVAEMKEYITKFSLERQTWDQLLLHYQQEAKEILSRGSTEAKITEVKVEPMTYLGSSQNEVLNTKPDYQKILQNQSKVFDCMELVMDELQGSVKQLQAFMDESTQCFQKVSVQLGKRSMQQLDPSPARKLLKLQLQNPPAIHGSGSGSCQ
chain 2: MAGSPELVVLDPPWDKELAAGTESQALVSATPREDFRVRCTSKRAVTEMLQLCGRFVQKLGDALPEEIREPALRDAQWTFESAVQENISINGQAWQEASDNCFMDSDIKVLEDQFDEIIVDIATKRKQYPRKILECVIKTIKAKQEILKQYHPVVHPLDLKYDPDPAPHMENLKCRGETVAKEISEAMKSLPALIEQGEGFSQVLRMQPVIHLQRIHQEVFSSCHRKPDAKPENFITQIETTPTETASRKTSDMVLKR
chain 3: MSVDPMTYEAQFFGFTPQTCMLRIYIAFQDYLFEVMQAVEQVILKKLDGIPDCDISPVQIRKCTEKFLCFMKGHFDNLFSKMEQLFLQLILRIPSNILLPEDKCKETPYSEEDFQHLQKEIEQLQEKYKTELCTKQALLAELEEQKIVQAKLKQTLTFFDELHNVGRDHGTSDFRESLVSLVQNSRKLQNIRDNVEKESKRLKIS
chain 4: MAEASSANLGSGCEEKRHEGSSSESVPPGTTISRVKLLDTMVDTFLQKLVAAGSYQRFTDCYKCFYQLQPAMTQQIYDKFIAQLQTSIREEISDIKEEGNLEAVLNALDKIVEEGKVRKEPAWRPSGIPEKDLHSVMAPYFLQQRDTLRRHVQKQEAENQQLADAVLAGRRQVEELQLQVQAQQQAWQALHREQRELVAVLREPE
